Each binder was assayed against T1, thrombin-activated EphA2 (endogenous, from lysate of HUVECs stimulated with 1 U/ml thrombin for 5 mins) (human, UniProt P29317 24-976, tyrosine phosphorylated after thrombin stimulation (sites not given)) (assay: SH2 domain array with thrombin-stimulated HUVEC lysate, anti-EphA2 detection).
T1 construct: Endogenous EphA2 in a HUVEC lysate, detected on the array with a biotinylated anti-human EphA2 antibody; No signal peptide limits are stated
Description: (§1) Methods: We used a phosphotyrosine profiling array to identify signaling pathways linked to EphA2 activation by thrombin. HUVECs were prepared and stimulated with 1 U/ml thrombin for 5 mins. TranSignal Phosphotyrosine Profiling Array (Panomics) was used according to the manufacturer's protocol, except that a biotinylated anti-human EphA2 (R & D) was used as the detection antibody.
(§2) Results: Confluent HUVECs were stimulated with thrombin for 5 mins to induce EphA2 phosphorylation. This stimulated lysate and an unstimulated lysate were used in the antibody array experiment. The concept of this array is similar to a far-western blot. On this array, the SH2 domains of 38 signaling molecules were spotted in duplicate. Upon incubation with a lysate, each of these SH2 domains will bind to its specific, tyrosine phosphorylated protein targets. When an anti-human EphA2 antibody was used for detection, any SH2 domains that are bound to EphA2 will appear as two dots in a specific location of the membrane. Therefore, pathways activated post EphA2 phosphorylation can be identified.

T1 sequence (P29317 24-976 limits assumed): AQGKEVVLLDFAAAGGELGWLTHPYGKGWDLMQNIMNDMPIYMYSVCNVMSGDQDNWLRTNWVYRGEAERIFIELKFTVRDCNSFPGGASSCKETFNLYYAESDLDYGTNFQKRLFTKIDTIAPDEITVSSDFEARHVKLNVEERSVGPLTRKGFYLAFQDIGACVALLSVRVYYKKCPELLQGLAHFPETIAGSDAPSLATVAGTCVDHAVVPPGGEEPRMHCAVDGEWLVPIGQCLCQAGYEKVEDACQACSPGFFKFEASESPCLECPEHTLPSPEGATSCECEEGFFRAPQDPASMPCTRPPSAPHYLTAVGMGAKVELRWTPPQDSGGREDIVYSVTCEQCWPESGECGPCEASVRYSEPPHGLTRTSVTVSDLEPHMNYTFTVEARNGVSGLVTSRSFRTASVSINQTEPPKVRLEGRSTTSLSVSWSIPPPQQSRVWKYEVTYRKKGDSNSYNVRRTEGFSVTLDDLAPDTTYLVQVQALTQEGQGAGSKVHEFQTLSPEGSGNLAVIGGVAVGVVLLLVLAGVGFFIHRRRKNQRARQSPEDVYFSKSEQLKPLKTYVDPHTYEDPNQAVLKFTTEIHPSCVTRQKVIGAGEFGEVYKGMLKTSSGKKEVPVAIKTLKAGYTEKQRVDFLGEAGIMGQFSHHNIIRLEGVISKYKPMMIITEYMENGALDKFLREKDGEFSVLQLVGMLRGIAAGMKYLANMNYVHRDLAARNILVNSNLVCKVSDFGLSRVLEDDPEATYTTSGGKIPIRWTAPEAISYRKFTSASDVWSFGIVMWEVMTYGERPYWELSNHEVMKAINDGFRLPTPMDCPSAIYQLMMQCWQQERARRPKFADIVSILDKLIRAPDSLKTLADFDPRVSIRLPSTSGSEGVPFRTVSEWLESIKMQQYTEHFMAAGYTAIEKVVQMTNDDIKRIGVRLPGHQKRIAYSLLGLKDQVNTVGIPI

| Binder | binding result |
| --- | --- |
| SH2 domain of Nck1 (other, UniProt P16333 282-376, looked up, domain: SH2 domain) WYYGKVTRHQAEMALNERGHEGDFLIRDSESSPNDFSVSLKAQGKNKHFKVQLKETVYCIGQRKFSTMEELVEHYKKAPIFTSEQGEKLYLVKHL | no binding |
| SH2 domain of Brdg1 (other, UniProt Q9ULZ2 177-280, looked up, domain: SH2 domain) ACFYTVSRKEATEMLQKNPSLGNMILRPGSDSRNYSITIRQEIDIPRIKHYKVMSVGQNYTIELEKPVTLPNLFSVIDYFVKETRGNLRPFICSTDENTGQEPS | no binding |
| SH2 domain of Fyn (other, UniProt P06241 149-246, looked up, domain: SH2 domain) WYFGKLGRKDAERQLLSFGNPRGTFLIRESETTKGAYSLSIRDWDDMKGDHVKHYKIRKLDNGGYYITTRAQFETLQQLVQHYSERAAGLCCRLVVPC | no binding |
| SH2 domain of TNS (other, UniProt Q9HBL0 1567-1676, looked up, domain: SH2 domain) WYKPEISREQAIALLKDQEPGAFIIRDSHSFRGAYGLAMKVSSPPPTIMQQNKKGDMTHELVRHFLIETGPRGVKLKGCPNEPNFGSLSALVYQHSIIPLALPCKLVIPN | no binding |
| SH2 domain of Btk (other, UniProt Q06187 281-377, looked up, domain: SH2 domain) WYSKHMTRSQAEQLLKQEGKEGGFIVRDSSKAGKYTVSVFAKSTGDPQGVIRHYVVCSTPQSQYYLAEKHLFSTIPELINYHQHNSAGLISRLKYPV | no binding |
| SH2 domain of SHC2 (other, UniProt P98077 487-578, looked up, domain: SH2 domain) WYHGRMSRRAAERMLRADGDFLVRDSVTNPGQYVLTGMHAGQPKHLLLVDPEGVVRTKDVLFESISHLIDHHLQNGQPIVAAESELHLRGVV | no binding |
| SH2 domain of Lyn (other, UniProt P07948 129-226, looked up, domain: SH2 domain) WFFKDITRKDAERQLLAPGNSAGAFLIRESETLKGSFSLSVRDFDPVHGDVIKHYKIRSLDNGGYYISPRITFPCISDMIKHYQKQADGLCRRLEKAC | no binding |
| SH2 domain of Nck2 (other, UniProt O43639 285-380, looked up, domain: SH2 domain) WYYGNVTRHQAECALNERGVEGDFLIRDSESSPSDFSVSLKASGKNKHFKVQLVDNVYCIGQRRFHTMDELVEHYKKAPIFTSEHGEKLYLVRALQ | no binding |
| SH2 domain of Eat2 (other, UniProt O14796 5-101, looked up, domain: SH2 domain) YYHGRLTKQDCETLLLKEGVDGNFLLRDSESIPGVLCLCVSFKNIVYTYRIFREKHGYYRIQTAEGSPKQVFPSLKELISKFEKPNQGMVVHLLKPI | no binding |
| SH2 domain of Matk (other, UniProt P42679 122-211, looked up, domain: SH2 domain) WFHGKISGQEAVQQLQPPEDGLFLVRESARHPGDYVLCVSFGRDVIHYRVLHRDGHLTIDEAVFFCNLMDMVEHYSKDKGAICTKLVRPK | no binding |
| SH2 domain of Stap2 (other, UniProt Q9UGK3 133-248, looked up, domain: SH2 domain) YMMSEVLAKEEARRALETPSCFLKVSRLEAQLLLERYPECGNLLLRPSGDGADGVSVTTRQMHNGTHVVRHYKVKREGPKYVIDVEQPFSCTSLDAVVNYFVSHTKKALVPFLLDE | no binding |
| SH2 domain of Abl1 (other, UniProt P00519 127-217, looked up, domain: SH2 domain) WYHGPVSRNAAEYLLSSGINGSFLVRESESSPGQRSISLRYEGRVYHYRINTASDGKLYVSSESRFNTLAELVHHHSTVADGLITTLHYPA | no binding |
| SH2 domain of Fgr (other, UniProt P09769 144-241, looked up, domain: SH2 domain) WYFGKIGRKDAERQLLSPGNPQGAFLIRESETTKGAYSLSIRDWDQTRGDHVKHYKIRKLDMGGYYITTRVQFNSVQELVQHYMEVNDGLCNLLIAPC | no binding |
| SH2 domain of Csk (other, UniProt P41240 82-171, looked up, domain: SH2 domain) WFHGKITREQAERLLYPPETGLFLVRESTNYPGDYTLCVSCDGKVEHYRIMYHASKLSIDEEVYFENLMQLVEHYTSDADGLCTRLIKPK | no binding |
| SH2 domain of SHC1 (other, UniProt P29353 488-579, looked up, domain: SH2 domain) WFHGKLSRREAEALLQLNGDFLVRESTTTPGQYVLTGLQSGQPKHLLLVDPEGVVRTKDHRFESVSHLISYHMDNHLPIISAGSELCLQQPV | no binding |
| SH2 domain of Lck (other, UniProt P06239 127-224, looked up, domain: SH2 domain) WFFKNLSRKDAERQLLAPGNTHGSFLIRESESTAGSFSLSVRDFDQNQGEVVKHYKIRNLDNGGFYISPRITFPGLHELVRHYTNASDGLCTRLSRPC | no binding |
| SH2 domain of SHC3 (other, UniProt Q92529 499-590, looked up, domain: SH2 domain) WYQGEMSRKEAEGLLEKDGDFLVRKSTTNPGSFVLTGMHNGQAKHLLLVDPEGTIRTKDRVFDSISHLINHHLESSLPIVSAGSELCLQQPV | no binding |
| SH2 domain of Hck (other, UniProt P08631 144-241, looked up, domain: SH2 domain) WFFKGISRKDAERQLLAPGNMLGSFMIRDSETTKGSYSLSVRDYDPRQGDTVKHYKIRTLDNGGFYISPRSTFSTLQELVDHYKKGNDGLCQKLSVPC | no binding |
| SH2 domain of Grap (other, UniProt Q13588 60-154, looked up, domain: SH2 domain) WYSGRISRQLAEEILMKRNHLGAFLIRESESSPGEFSVSVNYGDQVQHFKVLREASGKYFLWEEKFNSLNELVDFYRTTTIAKKRQIFLRDEEPL | no binding |
| SH2 domain of Yes (other, UniProt P07947 158-255, looked up, domain: SH2 domain) WYFGKMGRKDAERLLLNPGNQRGIFLVRESETTKGAYSLSIRDWDEIRGDNVKHYKIRKLDNGGYYITTRAQFDTLQKLVKHYTEHADGLCHKLTTVC | no binding |
| SH2 domain of RaLP (other, UniProt Q6S5L8 526-617, looked up, domain: SH2 domain) CYHGKLSRKAAESLLVKDGDFLVRESATSPGQYVLSGLQGGQAKHLLLVDPEGKVRTKDHVFDNVGHLIRYHMDNSLPIISSGSEVSLKQPV | no binding |
| SH2 domain of Fes (other, UniProt P07332 460-549, looked up, domain: SH2 domain) WYHGAIPRAEVAELLVHSGDFLVRESQGKQEYVLSVLWDGLPRHFIIQSLDNLYRLEGEGFPSIPLLIDHLLSTQQPLTKKSGVVLHRAV | no binding |
| SH2 domain of Grb14 (other, UniProt Q14449 439-535, looked up, domain: SH2 domain) WFHHKISRDEAQRLIIQQGLVDGVFLVRDSQSNPKTFVLSMSHGQKIKHFQIIPVEDDGEMFHTLDDGHTRFTDLIQLVEFYQLNKGVLPCKLKHYC | no binding |

These binders were tested against T1, thrombin-activated EphA2 (endogenous, …) (assay: SH2 domain array with thrombin-stimulated HUVEC lysate, anti-human EphA2 detection).
Description: as §1, §2

| Binder | binding result |
| --- | --- |
| SH2 domain of Crkl (other, UniProt P46109 14-102, looked up, domain: SH2 domain; also called Crk1) WYMGPVSRQEAQTRLQGQRHGMFLVRDSSTCPGDYVLSVSENSRVSHYIINSLPNRRFKIGDQEFDHLPALLEFYKIHYLDTTTLIEPA | binds |

Source: US20080199426A1 (BETH ISRAEL DEACONESS MEDICAL CENTER, published 2008)
